Laboratory results reported in article PMC6824681, “Phosphoproteomics reveals that the hVPS34 regulated SGK3 kinase specifically phosphorylates endosomal proteins including Syntaxin-7, Syntaxin-12, RFIP4 and WDR44” (Biochemical Journal, 2019).

T1: GFP-STX12 wild type (Syntaxin-12) (human, UniProt Q86Y82 1-276)
T1 construct: Syntaxin-12 (STX12), human; After IGF1 stimulation about 20% of the stably expressed protein was phosphorylated (Ser139) by phos-tag analysis; also called GFP-STX12 WT; wild-type STX12
T1 sequence (looked up): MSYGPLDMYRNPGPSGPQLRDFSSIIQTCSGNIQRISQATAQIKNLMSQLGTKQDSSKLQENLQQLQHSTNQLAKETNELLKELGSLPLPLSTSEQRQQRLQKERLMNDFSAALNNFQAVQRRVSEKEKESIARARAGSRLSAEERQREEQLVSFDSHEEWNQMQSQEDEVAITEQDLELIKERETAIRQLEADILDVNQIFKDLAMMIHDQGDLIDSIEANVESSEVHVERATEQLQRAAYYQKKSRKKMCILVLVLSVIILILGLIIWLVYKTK


Molecular target: T1, GFP-STX12 wild type (Syntaxin-12)
Assay: co-IP; GFP-STX12 WT or S139A immunoprecipitated from 2 mg lysate with GFP-Trap beads, 4°C, 4 h; two washes with lysis buffer with 0.45 M NaCl, one with 0.15 M NaCl; immunoblot of endogenous partners; cells serum-starved overnight, ± 14H (1 µM, 1 h), ± IGF1 (50 ng/ml, 15 min)
Conditions: partners not purified

| Binder | fold increase of the amount co-immunoprecipitated, IGF1-stimulated against unstimulated cells [fold] |
| --- | --- |
| VAMP4 (natural protein, human (endogenous in HEK293), UniProt O75379 1-141, looked up, VAMP4, endogenous in HEK293 cells, detected by immunoblot with anti-VAMP4; also called v-SNARE protein VAMP4; source: endogenous, HEK293 lysate) MPPKFKRHLNDDDVTGSVKSERRNLLEDDSDEEEDFFLRGPSGPRFGPRNDKIKHVQNQVDEVIDVMQENITKVIERGERLDELQDKSESLSDNATAFSNRSKQLRRQMWWRGCKIKAIMALVAAILLLVIIILIVMKYRT | ~2 |
| VTI1A (natural protein, human (endogenous in HEK293), UniProt Q96AJ9 1-217, looked up, Vti1a (VTI1A), endogenous in HEK293 cells, detected by immunoblot with anti-VTI1A; source: endogenous, HEK293 lysate) MSSDFEGYEQDFAVLTAEITSKIARVPRLPPDEKKQMVANVEKQLEEAKELLEQMDLEVREIPPQSRGMYSNRMRSYKQEMGKLETDFKRSRIAYSDEVRNELLGDDGNSSENQRAHLLDNTERLERSSRRLEAGYQIAVETEQIGQEMLENLSHDREKIQRARERLRETDANLGKSSRILTGMLRRIIQNRILLVILGIIVVITILMAITFSVRRH | ~2 |
| Syntaxin 6 (STX6) (natural protein, human (endogenous in HEK293), UniProt O43752 1-255, looked up, Syntaxin-6 (STX6), endogenous in HEK293 cells, detected by immunoblot with anti-STX6; source: endogenous, HEK293 lysate) MSMEDPFFVVKGEVQKAVNTAQGLFQRWTELLQDPSTATREEIDWTTNELRNNLRSIEWDLEDLDETISIVEANPRKFNLDATELSIRKAFITSTRQVVRDMKDQMSTSSVQALAERKNRQALLGDSGSQNWSTGTTDKYGRLDRELQRANSHFIEEQQAQQQLIVEQQDEQLELVSGSIGVLKNMSQRIGGELEEQAVMLEDFSHELESTQSRLDNVMKKLAKVSHMTSDRRQWCAIAILFAVLLVVLILFLVL | ~2 |
